Here are results for one substance from PMC13572408.

The target of the assay is His6-AstR (Acinetobacter baumannii ATCC 17978VU). The experiment in a line: SEC; purified His6-AstR; size estimated with standard curves; Size Exclusion Buffer (50 mM Tris, 300 mM NaCl, pH 8).

On to His6-AstR (natural protein), for which the stoichiometry N (as a rule, a count of units in the complex or per binding partner) was 2.
